The numbers were not newly measured in paper PMC3158961, which cites them from elsewhere.

Where two headings read alike, the source gives them in different places.

For data set [1], the target named is CEP55 (Homo sapiens) (UniProt Q53EZ4).
For data set [2] the target is unchanged. The source holds these as a separate data set.
The next data set concerns the target Nedd4 WW3 (UniProt P46934).
Chain of UniProt P46934 (P46934 840-873): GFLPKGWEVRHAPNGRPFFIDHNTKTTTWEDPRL

Chain of UniProt Q53EZ4 (Q53EZ4 whole entry): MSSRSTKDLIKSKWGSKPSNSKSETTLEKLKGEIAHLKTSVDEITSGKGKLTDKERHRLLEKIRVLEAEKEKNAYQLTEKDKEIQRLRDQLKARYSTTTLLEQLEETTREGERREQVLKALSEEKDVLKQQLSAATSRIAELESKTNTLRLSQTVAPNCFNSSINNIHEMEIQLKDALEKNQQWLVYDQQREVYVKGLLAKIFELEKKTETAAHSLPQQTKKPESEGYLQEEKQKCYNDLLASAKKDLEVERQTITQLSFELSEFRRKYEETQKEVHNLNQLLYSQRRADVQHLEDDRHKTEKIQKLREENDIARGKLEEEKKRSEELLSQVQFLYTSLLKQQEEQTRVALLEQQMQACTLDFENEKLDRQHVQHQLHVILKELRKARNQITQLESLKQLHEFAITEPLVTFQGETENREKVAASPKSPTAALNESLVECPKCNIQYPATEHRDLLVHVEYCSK

Turning to “ALIX GPPX3Y peptide (from UniProt Q8WUM4)”, in the data set with CEP55 (Homo sapiens) [1], the equilibrium dissociation constant (Kd) (as a rule, the constant that tells how readily two partners part at equilibrium) is 1 µM.
For the substance “TSG101 GPPX3Y peptide (from UniProt Q99816)”, the dissociation constant Kd with CEP55 (Homo sapiens) [2] is 1 µM.
For the substance “ENaC β subunit PPXY peptide (from UniProt P51168)”, the dissociation constant Kd in the data set with Nedd4 WW3 is 20 µM.
